Results taken from publication PMC6430397, “The pharmacological properties of 3-arm or 4-arm DOTA constructs for conjugation to α-melanocyte-stimulating hormone analogues for melanoma imaging” (PLoS ONE, 2019).

Experiments:
[1] = Partition coefficient, n-octanol / 0.1 M phosphate buffer; assay type: physicochemical; details: shake-flask, 2.0 mL n-octanol / 2.0 mL 0.1 M phosphate buffer pH 7.4, room temperature, 20 uL radioactive sample, mixed twice 1 min, radioactivity counting; mean ± SD; read-out: Partition coefficient, log (n-octanol/0.1 M phosphate buffer)
Description: The partition coefficients of ^111In-labeled 3-arm and 4-arm DOTA-α-MSH were measured using 2.0 mL n-octanol as the organic phase and 2.0 mL 0.l M phosphate buffer as the aqueous phase (pH 7.4 for plasma). N-octanol and the buffer were pre-mixed twice using a mechanical mixer for 1 min at room temperature. Then, 20 µL radioactive sample were added and mixed twice using a mechanical mixer for 1 min at room temperature. The radioactivity of 200 uL of each phase was measured after centrifugation. Calculation of log (n-octanol/0.l M phosphate buffer) was performed.

[2] = Stability analysis in plasma, liver and kidney of mice, ex vivo TLC; design: species or system mouse; details: γ-counter, mean ± SD, n = 3 mice; for Fraction ratio of intact radiotracer, Plasma (%): B16-F1-bearing C57BL6 mice; for Fraction ratio of intact radiotracer, Plasma (%) / Fraction ratio of intact radiotracer, Liver (%): reverse-phase TLC; for Fraction ratio of intact radiotracer, Liver (%): liver homogenate
Description: All animal studies were conducted following approval by the Animal Care Committee of Kanazawa University (AP-122339). Fasted B16-F1-bearing C57BL6 male mice (5 weeks old) were administered ^111In-labeled 3-arm or 4-arm DOTA-α-MSH (3.7 MBq/mouse) via the tail vein. At 10, 30, 60, 120, and 180 min after injection, mice (n = 3 per time point) were euthanized with isoflurane, and blood and liver were collected and analyzed with thin layer chromatography (TLC). Briefly, 300 uL blood in a heparinized tube was centrifuged at 18,000 ×g at 4°C for 5 min. A total of 30 uL perchloric acid was added to the supernatant, which was centrifuged again, after which the final supernatant was spotted onto the TLC plate as plasma. Krebs-Ringer phosphate buffer (pH 7.4) was added to the liver samples, followed by homogenization with an ultrasonic homogenizer (SONIFIER250, Branson, MO, USA). Then, ethanol was added to the homogenate to remove proteins, and the sample was centrifuged at 18,000 ×g at 4°C for 5 min. The final supernatant was spotted onto the reverse-phase TLC plate, and the TLC spots were developed using 50 mM EDTA (pH 4–5) solvents. After development and complete drying, the TLC plates were cut into 21 fractions, and the radioactivity associated with each fraction was quantified using a γ-ray counter. The fraction ratios of ^111In^3+, ^111In-labeled 3-arm or 4-arm DOTA-α-MSH, and all metabolites were calculated by dividing the radioactive counts for each fraction by the total radioactivity counts.

[3] = 10 min after i.v. injection 3.7 MBq/mouse
[4] = 30 min after i.v. injection 3.7 MBq/mouse
[5] = 60 min after i.v. injection 3.7 MBq/mouse
[6] = 120 min after i.v. injection 3.7 MBq/mouse
[7] = 180 min after i.v. injection 3.7 MBq/mouse

**Q.** For `CSCC[C@H](NC(=O)[C@H](CO)NC(=O)[C@H](Cc1ccc(O)cc1)NC(=O)[C@H](CO)NC(C)=O)C(=O)N[C@@H](CCC(=O)O)C(=O)N[C@@H](Cc1c[nH]cn1)C(=O)N[C@@H](Cc1ccccc1)C(=O)N[C@@H](CCCNC(=N)N)C(=O)N[C@@H](Cc1c[nH]c2ccccc12)C(=O)NCC(=O)N[C@@H](CCCCNC(=S)Nc1ccc(C[C@H]2CN(CC(=O)O)CCN(CC(=O)O)CCN(CC(=O)O)CCN2CC(=O)O)cc1)C(=O)N1CCC[C@H]1C(=O)N[C@H](C(=O)O)C(C)C` [^111In-labeled 4-arm DOTA-α-MSH, metal not drawn], which logD [1] is on record?
**A.** -0.13 ± 0.04

**Q.** And the “Fraction ratio of intact radiotracer, Plasma (%)” value (shortened to “Fraction ratio … Plasma (%)”) [2, 3]?
**A.** 96.0 ± 2.5%

**Q.** What about the “Fraction ratio of intact radiotracer, Liver (%)” value (shortened to “Fraction ratio … Liver (%)”) [2, 3] of the same molecule?
**A.** 95.1 ± 2.9%

**Q.** What about the “Fraction ratio … Plasma (%)” value [2, 4] of the same molecule?
**A.** 95.8 ± 2.6%

**Q.** And the “Fraction ratio of intact radiotracer, Kidney (%)” value ([2]; 30 min after i.v. injection 3.7 MBq/mouse, kidney, TLC)?
**A.** 95.8 ± 1.9%

**Q.** What about the “Fraction ratio … Liver (%)” value [2, 4] of the same molecule?
**A.** 94.9 ± 2.1%

**Q.** What about the “Fraction ratio … Plasma (%)” value [2, 5] of the same molecule?
**A.** 92.1 ± 2.1%

**Q.** What about the “Fraction ratio … Liver (%)” value [2, 5] of the same molecule?
**A.** 91.3 ± 3.2%

**Q.** And the “Fraction ratio … Plasma (%)” value [2, 6]?
**A.** 84.2 ± 2.2%

**Q.** What about the “Fraction ratio … Liver (%)” value [2, 6] of the same molecule?
**A.** 78.6 ± 4.9%

**Q.** And the “Fraction ratio … Plasma (%)” value [2, 7]?
**A.** 80.8 ± 2.3%

**Q.** And the “Fraction ratio … Liver (%)” value [2, 7]?
**A.** 76.2 ± 4.1%
